Data: article PMC3526290

How the values were obtained:
[1] = target: Asf1 labeled with Alexa Fluor 532 (*Asf1), full-length (budding yeast) (UniProt P32447); test: fluorescence polarisation; fluorescence anisotropy; 10 nM *Asf1 (alone or pre-bound to 20 nM H3/H4) or 100 nM *Asf1^1-169, Cac2 or CAF-1 titrated; 20 mM HEPES, 150 mM NaCl, pH 7.4, 20°C
[2] = target: Asf1 labeled with Alexa Fluor 532 (*Asf1), full-length (budding yeast) (UniProt P32447); test: native gel or EMSA; labelled protein (*Asf1, 0.5 µM in Figure 1b, or H3/H4*) with Cac2 or CAF-1 titrated or at 20 µM; 10 mM Tris, 1 mM DTT, pH 8.0, 30 min on ice; 0.2x TBE 59:1 native gel on ice; fraction bound from band densities
[3] = target: Cac2 B domain (Saccharomyces cerevisiae) (UniProt Q04199); conditions: cited from earlier work
Sequence of UniProt Q04199 (Q04199 449-468): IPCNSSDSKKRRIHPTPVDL

Kd [1]	Kd [2]	Substance	Kd [3]
380 nM	280 nM	Chromatin Assembly Factor 1 (CAF-1) complex: Cac1, Cac2, Cac3 (from UniProt Q12495 1-606; Q04199 1-468; P13712 1-422)	–
–	–	Asf1 (from UniProt P32447)	1500 nM
